Laboratory results as given in US20220177587A1, “METHODS AND USES OF VARIANT CD80 FUSION PROTEINS AND RELATED CONSTRUCTS” (Alpine Immune Sciences, Inc., priority 2018, published 2022).

Tests used:
[1] = molecular target: CD28 (human) (UniProt P10747); test: flow cytometry, Jurkat cells (CD28)
[2] = molecular target: PD-L1 (human) (UniProt Q9NZQ7); test: flow cytometry, CHO cells expressing PD-L1
Target sequence in this assay (Q9NZQ7 19-290): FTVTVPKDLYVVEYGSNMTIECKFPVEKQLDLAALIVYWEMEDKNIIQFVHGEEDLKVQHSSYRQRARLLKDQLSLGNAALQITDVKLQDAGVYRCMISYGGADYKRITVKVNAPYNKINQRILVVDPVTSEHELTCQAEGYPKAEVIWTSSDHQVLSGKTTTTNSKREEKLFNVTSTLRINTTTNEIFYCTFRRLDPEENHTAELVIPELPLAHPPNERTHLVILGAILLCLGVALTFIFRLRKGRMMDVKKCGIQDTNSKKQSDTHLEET

[3] = molecular target: human CTLA-4 (human) (UniProt P16410); test: flow cytometry, CHO cells expressing CTLA4
Target sequence in this assay (P16410 36-223): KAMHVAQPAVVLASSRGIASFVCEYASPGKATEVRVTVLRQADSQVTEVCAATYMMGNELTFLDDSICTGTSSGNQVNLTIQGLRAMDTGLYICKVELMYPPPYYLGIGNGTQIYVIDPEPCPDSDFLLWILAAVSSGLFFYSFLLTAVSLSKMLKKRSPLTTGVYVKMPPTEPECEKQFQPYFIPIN

[4] = molecular target: human CTLA-4 (human) (UniProt P16410); test: flow cytometry, CHO cells stably expressing CTLA4
[5] = molecular target: PD-L1 (human) (UniProt Q9NZQ7); test: flow cytometry, CHO cells stably expressing PD-L1
[6] = molecular target: PD-L1 (human) (UniProt Q9NZQ7); test: flow cytometry, CHO cells expressing huPD-L1
[7] = molecular target: CD28 (human) (UniProt P10747); test: flow cytometry, Jurkat/IL2 reporter cells (CD28)
[8] = molecular target: CD28 (human) (UniProt P10747)
[9] = molecular target: human CTLA-4 (human) (UniProt P16410); test: flow cytometry, CHO cells expressing huCTLA-4
Target sequence in this assay (P16410 36-223): as above

wild-type CD80 IgV (SEQ ID NO: 150)-Fc (inert) with GSG4S linker (Fc fusion), sequence (chain): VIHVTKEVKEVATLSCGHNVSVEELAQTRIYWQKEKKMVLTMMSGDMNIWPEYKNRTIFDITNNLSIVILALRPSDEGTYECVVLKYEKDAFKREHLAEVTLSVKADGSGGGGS

“CD80 H18Y/E35D/M47L/Y53F/V68M/A71G IgV-Fc (Fc fusion)” was tested. Which Fold change to WT CD80 [1] did it give?
The Fold change to WT CD80 was 0.5 fold.

And the MFI at 33.3 nM [1]?
Its MFI at 33.3 nM is 15.7 MFI.

And the Fold change to WT CD80 [2]?
Its Fold change to WT CD80 is 99.1 fold.

What about the MFI at 33.3 nM [2] of the same substance?
Its MFI at 33.3 nM is 5100 MFI.

What about the MFI at 33.3 nM [3] of the same substance?
Its MFI at 33.3 nM is 146 MFI.

How did the MFI at 66.7 nM [1] turn out when “CD80 (A91G/I118V/T120S/T130A) ECD-Fc (Fc fusion)” was run?
The MFI at 66.7 nM was 720.

What about the EC50 [4] of the same substance?
Its EC50 is 4.3 nM.

What about the MFI at 66.7 nM [4] of the same substance?
Its MFI at 66.7 nM is 24800.

And the MFI at 66.7 nM [5]?
The MFI at 66.7 nM was 107.

How did the MFI at 33.3 nM [1] turn out when “CD80 E35D/M47V/V68M/L85M IgV-Fc (Fc fusion)” was run?
The MFI at 33.3 nM was 201 MFI.

What about the MFI at 33.3 nM [2] of the same substance?
The MFI at 33.3 nM was 9180 MFI.

And the MFI at 33.3 nM [3]?
Its MFI at 33.3 nM is 16000 MFI.

Which results are given for “CD80 IgV-Fc H18Y/E35D/M47I/V68M/A71G/R94L (Fc fusion)”?
MFI at 33.3 nM [1]: 1900 MFI; MFI at 33.3 nM [5]: 14500 MFI

Which results are given for “CD80 IgV-Fc E35D/M47I/T62S/L85Q/E88D (Fc fusion)”?
MFI at 33.3 nM [4]: 8910 MFI; MFI at 33.3 nM [5]: 8420 MFI

With “variant CD80 IgV-Fc M47V/N48K/V68M/K89N (Fc fusion)” as the substance, how does the MFI at 33.3 nM [6] read?
The MFI at 33.3 nM was 23700 MFI.

For “variant CD80 IgV-Fc E35D/D46V/M47V/V68M/K89N (Fc fusion)”, which MFI at 33.3 nM [7] is on record?
The MFI at 33.3 nM was 2120 MFI.

What about the MFI at 33.3 nM [6] of the same substance?
The MFI at 33.3 nM was 21600 MFI.

For WT CD80 IgV-Fc (effector) (Fc fusion), which IL-2 release, primary T cells + K562/OKT3 (No PD-L1), 100 nM [8] is on record?
The IL-2 release, primary T cells + K562/OKT3 (No PD-L1), 100 nM was 6200.

For “variant CD80 IgV-Fc (inert) H18F/A26H/E35D/M47L/V68M/A71G/D90G (Fc fusion)”, which MFI at 33.3 nM [1] is on record?
Its MFI at 33.3 nM is 8390 MFI.

What about the MFI at 33.3 nM [4] of the same substance?
The MFI at 33.3 nM was 16400 MFI.

What about the MFI at 33.3 nM [5] of the same substance?
The MFI at 33.3 nM was 20700 MFI.

What does the source list for “CD80 (S21P/L70Q/D90G/I118V/T120S/T130A) ECD-Fc (Fc fusion)”?
MFI at 66.7 nM [1]: 282; EC50 [4]: 8.8 nM; MFI at 66.7 nM [5]: 103

Which MFI at 33.3 nM [5] does the source give for “wild-type CD80 IgV (SEQ ID NO: 150)-Fc (inert) with GSG4S linker (Fc fusion)” here?
The MFI at 33.3 nM was 47 MFI.

Which results are given for “CD80 IgV-Fc Q33R/M47V/T62N/A71G (Fc fusion)”?
MFI at 33.3 nM [4]: 308 MFI; MFI at 33.3 nM [5]: 12200 MFI

For “CD80 H18Y/E35D/V68M/A71G/R94Q/E95V IgV-Fc (Fc fusion)”, which MFI at 33.3 nM [1] is on record?
Its MFI at 33.3 nM is 16 MFI.

And the MFI at 33.3 nM [2]?
The MFI at 33.3 nM was 15000 MFI.

What about the MFI at 33.3 nM [3] of the same substance?
The MFI at 33.3 nM was 18300 MFI.

With “CD80 T13R/Q27L/Q33L/E35D/T41S/M47V/N48K/V68M/L85M IgV-Fc (Fc fusion)” as the substance, how does the Fold change to WT CD80 [1] read?
The Fold change to WT CD80 was 0.5 fold.

What about the MFI at 33.3 nM [1] of the same substance?
Its MFI at 33.3 nM is 14.6 MFI.

What about the Fold change to WT CD80 [2] of the same substance?
The Fold change to WT CD80 was 63.5 fold.

And the MFI at 33.3 nM [2]?
The MFI at 33.3 nM was 3270 MFI.

What about the MFI at 33.3 nM [3] of the same substance?
Its MFI at 33.3 nM is 109 MFI.

“variant CD80 IgV-Fc D46V/V68M/L85Q (Fc fusion)” was tested. Which MFI at 33.3 nM [9] did it give?
The MFI at 33.3 nM was 7570 MFI.

And the MFI at 33.3 nM [6]?
Its MFI at 33.3 nM is 4170 MFI.

What does the source list for “CD80 H18Y/E35D/M47I/V68M/Y87N IgV-Fc (Fc fusion)”?
MFI at 33.3 nM [1]: 4040 MFI; MFI at 33.3 nM [2]: 15000 MFI; MFI at 33.3 nM [3]: 18600 MFI

For “variant CD80 IgV-Fc (inert) A26P/E35D/M47I/V68M/A71G/D90G (Fc fusion)”, which MFI at 33.3 nM [1] is on record?
The MFI at 33.3 nM was 8190 MFI.

What about the MFI at 33.3 nM [4] of the same substance?
Its MFI at 33.3 nM is 19800 MFI.

Which results are given for “CD80 T13R/Q33R/E35D/M38I/M47L/V68M IgV-Fc (Fc fusion)”?
MFI at 33.3 nM [1]: 13.8 MFI; Fold change to WT CD80 [2]: 87 fold; MFI at 33.3 nM [2]: 4480 MFI; MFI at 33.3 nM [3]: 193 MFI

What does the source list for “CD80 T13R/Q33L/E35D/M47L/V68M/L85M IgV-Fc (Fc fusion)”?
Fold change to WT CD80 [1]: 0.5 fold; MFI at 33.3 nM [1]: 15.7 MFI; Fold change to WT CD80 [2]: 62.7 fold; MFI at 33.3 nM [2]: 3230 MFI; MFI at 33.3 nM [3]: 141 MFI

How did the MFI at 33.3 nM [7] turn out when “WT CD80 ECD-Fc (Abcam) (from UniProt P33681) (Fc fusion)” was run?
The MFI at 33.3 nM was 709 MFI.

What about the MFI at 33.3 nM [6] of the same substance?
Its MFI at 33.3 nM is 128 MFI.

How did the MFI at 66.7 nM [1] turn out when “CD80 (E88D/K89R/D90K/A91G/F92Y/K93R) ECD-Fc (Fc fusion)” was run?
Its MFI at 66.7 nM is 4050.

What about the EC50 [4] of the same substance?
Its EC50 is 3.6 nM.

And the MFI at 66.7 nM [4]?
The MFI at 66.7 nM was 26400.

And the MFI at 66.7 nM [5]?
Its MFI at 66.7 nM is 108.

What does the source list for “CD80 T13R/Q33R/E35D/M38I/M47L/V68M/L85M/R94Q IgV-Fc (Fc fusion)”?
MFI at 33.3 nM [1]: 15.2 MFI; MFI at 33.3 nM [2]: 20400 MFI; MFI at 33.3 nM [3]: 19100 MFI

For “wild-type CD80 ECD-Fc (inert), as in Example 12 (Fc fusion)”, which MFI at 33.3 nM [1] is on record?
The MFI at 33.3 nM was 57.8 MFI.

What about the MFI at 33.3 nM [5] of the same substance?
The MFI at 33.3 nM was 161 MFI.

How did the MFI at 33.3 nM [7] turn out when “variant CD80 IgV-Fc E35D/N48K/V68M/K89N (Fc fusion)” was run?
Its MFI at 33.3 nM is 1530 MFI.

What about the MFI at 33.3 nM [6] of the same substance?
Its MFI at 33.3 nM is 17400 MFI.

How did the MFI at 33.3 nM [9] turn out when “variant CD80 IgV-Fc N48K/V68M/K89N (Fc fusion)” was run?
Its MFI at 33.3 nM is 19100 MFI.

What about the MFI at 33.3 nM [6] of the same substance?
The MFI at 33.3 nM was 11500 MFI.

What does the source list for “variant CD80 IgV-Fc E35D/D46V/V68M/L85Q (Fc fusion)”?
MFI at 33.3 nM [9]: 32200 MFI; MFI at 33.3 nM [6]: 23600 MFI

What does the source list for Fc control (Example 24)?
Fold change to WT CD80 [1]: 0.2 fold; MFI at 11.1 nM [1]: 26 MFI; Fold change to WT CD80 [4]: 0 fold; MFI at 11.1 nM [4]: 106 MFI; Fold change to WT CD80 [5]: 1.8 fold; MFI at 11.1 nM [5]: 158 MFI

How did the MFI at 33.3 nM [6] turn out when “variant CD80 IgV-Fc E35D/M47V/V68M (Fc fusion)” was run?
Its MFI at 33.3 nM is 16600 MFI.

How did the Fold change to WT CD80 [1] turn out when “CD80 Q33R/E35D/M38I/M47L/V68M IgV-Fc (Fc fusion)” was run?
Its Fold change to WT CD80 is 0.5 fold.

What about the MFI at 33.3 nM [1] of the same substance?
The MFI at 33.3 nM was 15 MFI.

What about the Fold change to WT CD80 [2] of the same substance?
Its Fold change to WT CD80 is 320 fold.

And the MFI at 33.3 nM [2]?
The MFI at 33.3 nM was 16500 MFI.

What about the MFI at 33.3 nM [3] of the same substance?
Its MFI at 33.3 nM is 107 MFI.
